Patent publication US20240024520A1, “AUTONOMOUS KNOB DOMAIN PEPTIDES” (UCB BIOPHARMA SRL, priority 2020, published 2024)
pKd: −log10 of the molar value. Like-named read-outs stand apart in the source and are kept apart here. Bridge positions count the residues as written; N and C are the ends. Peptide text beside a SMILES is read from it.

Tests used:
Type in all cases: binding
C5 [1] = target: T1, C5 (Homo sapiens, UniProt P01031); assay: Monoclonal phage screening ELISA, human C5
Description: (§1) For the C5 libraries, a single round of enrichment was performed with either human or rat C5 protein. […] Phage were blocked for 30 minutes. Biotinylated antigen was added to the blocked phage at a concentration of 100 nM and incubated at room temperature with mixing.
(§2) Colonies were picked into a 96-well culture plate containing selective medium 2TY supplemented with 1% Glucose and 100 μg/ml Carbenicillin and was incubated at 37° C. until wells reached mid-log phase of growth prior to addition of M13K07 helper phage. The block was incubated without shaking for 1 hour to achieve infection and phage production using continued culture in selective media supplemented with 50 μg/ml Kanamycin and 100 μg/ml Carbenicillin.
Binding to antigen was assessed by monoclonal phage ELISA, 96-well flat bottom Nunc MaxiSorp plates (Thermofisher) were coated with a 2.5 μg/ml solution of human, mouse, or rat serum albumin, human C5 or mouse C5 diluted with PBS, and left overnight at 4° C. Negative control plate and Anti-myc tag plate were also prepared.
(§3) Monoclonal phage rescue supernatants were blocked with an equal volume of a 2% milk (w/v) in PBS, for serum albumin proteins, or 2% BSA and 2% milk (w/v) in PBS solution. The coating solution was removed from coated Nunc plates and each plate was blocked with 1% BSA in PBS (for C5 libraries) or 1% milk powder (for albumin library). Both phage and Nunc plates were blocked for 1 hour at room temperature. Nunc plates were washed using a 96-well microplate washer (BioTek) with a PBS solution contain 0.1% Tween20 (Sigma Aldrich). 100 of blocked phage solution was added to each well of Nunc MaxiSorp plate and left shaking at room temperature for 1 hour. Plates were washed and dried as previously described. 100 of an Anti-M13-Horse radish peroxidase conjugated antibody (GE Healthcare) diluted (1:5,000) in a 1% BSA or milk solution was added to each well and left shaking at room temperature for 1 hour. Plates were washed again and 50 μL of TMB solution (Merck Millipore) was added to each well. Plates were left shaking for 10 minutes. Absorbance was measured at 630 nm and 490 nm. Binding signals were obtained where Absorbance at 630 nm was >3-times the signal upon irrelevant antigen.
(§4) By monoclonal phage ELISA the following ultralong CDR-H3 sequences were identified as binders (OD>0.2 AU): […]

rat C5 protein = rat C5 protein (Rattus norvegicus, UniProt P08650); assay: Monoclonal phage screening ELISA, rat C5
rat C5 protein, sequence (P08650 19-674 limits assumed): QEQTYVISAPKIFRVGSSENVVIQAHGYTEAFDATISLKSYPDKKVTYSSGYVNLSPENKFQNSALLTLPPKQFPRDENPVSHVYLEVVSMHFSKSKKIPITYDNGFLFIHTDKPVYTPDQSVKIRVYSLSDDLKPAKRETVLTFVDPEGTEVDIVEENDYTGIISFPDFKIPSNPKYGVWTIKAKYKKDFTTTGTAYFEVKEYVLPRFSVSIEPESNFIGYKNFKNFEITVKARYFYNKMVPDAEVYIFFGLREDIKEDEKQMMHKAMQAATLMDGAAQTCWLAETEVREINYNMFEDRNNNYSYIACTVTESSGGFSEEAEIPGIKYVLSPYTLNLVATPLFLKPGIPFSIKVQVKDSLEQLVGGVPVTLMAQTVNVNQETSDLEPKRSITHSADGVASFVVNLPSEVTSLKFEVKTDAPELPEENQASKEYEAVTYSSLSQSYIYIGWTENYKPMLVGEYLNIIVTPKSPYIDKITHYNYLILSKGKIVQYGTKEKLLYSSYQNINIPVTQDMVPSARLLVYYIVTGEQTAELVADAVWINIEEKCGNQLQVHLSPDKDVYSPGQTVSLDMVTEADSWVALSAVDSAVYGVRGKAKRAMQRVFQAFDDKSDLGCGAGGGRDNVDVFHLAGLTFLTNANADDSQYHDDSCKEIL
rat C5 protein, sequence (P08650 679-1681 limits assumed): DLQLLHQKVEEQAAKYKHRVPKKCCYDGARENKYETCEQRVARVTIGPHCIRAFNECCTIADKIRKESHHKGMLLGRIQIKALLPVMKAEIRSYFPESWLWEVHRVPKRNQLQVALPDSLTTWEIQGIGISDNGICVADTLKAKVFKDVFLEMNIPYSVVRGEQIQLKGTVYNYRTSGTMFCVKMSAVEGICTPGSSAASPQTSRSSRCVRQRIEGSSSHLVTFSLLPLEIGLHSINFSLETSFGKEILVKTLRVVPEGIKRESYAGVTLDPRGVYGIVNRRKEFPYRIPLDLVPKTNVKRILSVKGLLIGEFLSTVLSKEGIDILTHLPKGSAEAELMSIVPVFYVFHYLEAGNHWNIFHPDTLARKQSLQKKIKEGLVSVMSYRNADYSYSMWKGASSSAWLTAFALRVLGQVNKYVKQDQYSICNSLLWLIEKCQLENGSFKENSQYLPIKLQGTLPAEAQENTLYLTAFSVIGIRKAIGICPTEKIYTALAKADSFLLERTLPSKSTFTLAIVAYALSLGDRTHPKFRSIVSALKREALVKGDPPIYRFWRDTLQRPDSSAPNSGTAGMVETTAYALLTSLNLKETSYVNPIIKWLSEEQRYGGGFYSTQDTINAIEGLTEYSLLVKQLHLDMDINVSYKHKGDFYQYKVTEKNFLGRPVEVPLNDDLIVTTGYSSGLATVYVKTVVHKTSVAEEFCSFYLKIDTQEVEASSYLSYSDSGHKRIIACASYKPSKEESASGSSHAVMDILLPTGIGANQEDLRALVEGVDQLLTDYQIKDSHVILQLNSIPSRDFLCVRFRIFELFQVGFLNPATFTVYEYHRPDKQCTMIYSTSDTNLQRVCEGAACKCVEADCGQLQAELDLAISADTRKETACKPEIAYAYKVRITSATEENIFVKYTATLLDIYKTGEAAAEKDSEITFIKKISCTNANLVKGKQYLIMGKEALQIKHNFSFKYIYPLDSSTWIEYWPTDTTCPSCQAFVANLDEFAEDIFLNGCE
Description: as §1, §2
[…] Negative control plate and Anti-myc tag plate were also prepared.
as §3, §4

C5 [2] = target: T1, C5; assay: Biacore multi-cycle kinetics on human C5; conditions: for mean stoichiometric ratio: measured Rmax divided by theoretical Rmax
Description: Binding of knob domain peptides to human C5 was measured by SPR, using a multi-cycle kinetics method as follows:
Kinetics were measured using a Biacore 8K (GE Healthcare) with a CM5 chip, which was prepared as follows: EDC/NHS was mixed at 1:1 ratio (flow rate, 10 μL/min; contact time, 30 seconds), human C5 protein at 1 μg/mL in pH 4.5 sodium-acetate buffer, were injected over flow cell one only (flow rate, 10 μL/min; contact time, 60 seconds). Final immobilization levels in the range of 2000-3000 response units (RU) were obtained, to yield theoretical Rmax values of ˜50-60 RU. Serial dilutions of peptide were prepared in HBS-EP buffer and injected (flow rate, 30 μL/min; contact time, 240 seconds; dissociation time, 6000 seconds). After each injection, the surface was regenerated with two sequential injections of 2M MgCl2 (flow rate, […]; contact time, 30 seconds). Binding to the reference surface was subtracted, and the data were fitted to a single site binding model, using Biacore evaluation software.

C5 [3] = target: T1, C5; assay: Biacore (SPR) single-cycle kinetics on immobilised C5
Description: Binding to C5 was measured using surface plasmon resonance (SPR) single-cycle kinetics as described below.
Biacore single-cycle kinetics. Using a Biacore 8K (GE Healthcare), C5 was immobilized on a CM5 chip by amine coupling. Flow cells were activated using EDC/NHS (flow rate, 10 μL/min; contact time, 30 s). C5, at 1 μg/mL in pH 4.5 Sodium-acetate buffer, was immobilized on flow cell two only (flow rate, 10 μL/min; contact time, 420 s). Finally, ethanolamine was applied to both flow cells (flow rate, 10 μL/min; contact time, 420 s). A final immobilization level of approximately 2,000 response units was obtained.
Single-cycle kinetics were measured using titrations in HBS-EP buffer. A high flow rate of 40 μL/min was used, with a contact time of 230 s and a dissociation time of 900 s. Binding to the reference surface was subtracted, and the data were fitted to a single-site binding model using Biacore evaluation software.
We measured individual rate constants (kon and koff) and equilibrium dissociation constants (KD) for knob domain peptides binding to C5 by the Biacore single-cycle kinetics method described above.
We used SPR single cycle kinetics to measure binding to human C5 protein.

[4] = anti-C5 ultralong CDR-H3, binder = OD>0.2 AU
[5] = knob domain of the anti-C5 ultralong CDR-H3

T1 sequence (P01031 19-1676): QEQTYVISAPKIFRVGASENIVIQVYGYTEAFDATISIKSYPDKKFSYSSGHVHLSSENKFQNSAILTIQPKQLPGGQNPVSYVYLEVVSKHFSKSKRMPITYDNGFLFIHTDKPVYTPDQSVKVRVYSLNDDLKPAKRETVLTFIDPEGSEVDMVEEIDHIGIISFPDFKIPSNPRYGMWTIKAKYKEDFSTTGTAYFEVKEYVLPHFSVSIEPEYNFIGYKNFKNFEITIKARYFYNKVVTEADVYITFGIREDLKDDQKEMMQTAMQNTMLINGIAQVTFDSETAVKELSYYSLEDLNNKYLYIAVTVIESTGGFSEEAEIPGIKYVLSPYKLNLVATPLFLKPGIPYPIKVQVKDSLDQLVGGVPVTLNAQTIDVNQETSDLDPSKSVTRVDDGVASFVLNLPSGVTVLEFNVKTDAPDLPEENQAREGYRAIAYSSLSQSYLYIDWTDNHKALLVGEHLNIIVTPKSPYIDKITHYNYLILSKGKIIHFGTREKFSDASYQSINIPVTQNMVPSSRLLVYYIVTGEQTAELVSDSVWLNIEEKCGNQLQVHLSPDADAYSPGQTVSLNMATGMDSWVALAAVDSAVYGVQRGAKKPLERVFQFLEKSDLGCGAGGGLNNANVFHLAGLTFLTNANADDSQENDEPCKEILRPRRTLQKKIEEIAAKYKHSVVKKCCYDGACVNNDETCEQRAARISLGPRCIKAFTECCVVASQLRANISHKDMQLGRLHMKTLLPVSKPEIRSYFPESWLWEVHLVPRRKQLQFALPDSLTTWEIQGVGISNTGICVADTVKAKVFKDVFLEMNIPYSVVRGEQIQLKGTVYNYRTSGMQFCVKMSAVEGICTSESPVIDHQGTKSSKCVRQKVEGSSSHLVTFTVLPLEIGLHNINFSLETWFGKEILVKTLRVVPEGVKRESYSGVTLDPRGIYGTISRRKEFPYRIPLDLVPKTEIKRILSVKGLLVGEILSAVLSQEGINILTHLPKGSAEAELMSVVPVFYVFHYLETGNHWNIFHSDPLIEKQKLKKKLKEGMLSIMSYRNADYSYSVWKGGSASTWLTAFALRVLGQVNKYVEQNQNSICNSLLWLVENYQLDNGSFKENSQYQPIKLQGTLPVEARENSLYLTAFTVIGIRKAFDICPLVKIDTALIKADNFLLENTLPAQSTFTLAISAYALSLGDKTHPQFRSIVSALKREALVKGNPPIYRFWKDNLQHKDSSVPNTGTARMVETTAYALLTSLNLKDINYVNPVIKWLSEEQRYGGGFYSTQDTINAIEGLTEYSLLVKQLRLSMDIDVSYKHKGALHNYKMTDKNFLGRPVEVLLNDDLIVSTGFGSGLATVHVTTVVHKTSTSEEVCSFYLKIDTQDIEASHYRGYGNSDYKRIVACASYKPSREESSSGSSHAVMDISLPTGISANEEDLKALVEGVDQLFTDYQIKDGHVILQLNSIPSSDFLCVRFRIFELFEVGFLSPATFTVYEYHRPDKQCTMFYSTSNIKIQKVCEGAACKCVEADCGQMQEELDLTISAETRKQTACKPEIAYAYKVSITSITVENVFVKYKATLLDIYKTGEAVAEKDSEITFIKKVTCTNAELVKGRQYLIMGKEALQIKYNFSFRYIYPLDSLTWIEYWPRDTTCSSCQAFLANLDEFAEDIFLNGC

| Compound | Specificity (C5 [1]; [4]) | Specificity (rat C5 protein; [4]) | Specificity (C5 [1]; [5]) | Specificity (rat C5 protein; [5]) | further results |
| --- | --- | --- | --- | --- | --- |
| 551 (TTVHQRTKKTCPLGYDLNYRCDHFNTCRVEECCKNGVVNAYGICEYAGGSATYTYEWYVD; Anti-C5 ultralong CDR-H3) [compound 551] | Human and Rat | Human and Rat |  |  |  |
| 552 (TTVHQRTKEERTCPSGCSWFSGCWDTYRCGPSVCCRDGRYGCAAIICRDTYEWYVD; Anti-C5 ultralong CDR-H3) [compound 552] | Human and Rat | Human and Rat |  |  |  |
| 553 (TTVHQKTKKTCPRGYHYNDRCEFFNTCRVEECCLNGVVNTYGICEYEGGSATYTYEWYVD; Anti-C5 ultralong CDR-H3) [compound 553] | Human and Rat | Human and Rat |  |  |  |
| 554 (TTVHQKTKKTCPRGYHYNDRCDFFNTCRVEECCLNGVVNTYGICEYEGGSATYTYEWYVD; Anti-C5 ultralong CDR-H3) [compound 554] | Human and Rat | Human and Rat |  |  |  |
| 555 (TTVHQKTKKTCPRGYHYNDRCEFFNTCRVEECCLNGVVNTYGICEYEGGSATYTYEWYVD; Anti-C5 ultralong CDR-H3) [compound 555] | Human and Rat | Human and Rat |  |  |  |
| 557 (TTVHLKTKKSCPLGYAINDRCDDLKTCGPDECCLNGVVNAYGICEYEGESATHTYEWYVD; Anti-C5 ultralong CDR-H3) [compound 557] | Human and Rat | Human and Rat |  |  |  |
| 558 (TTVHQKTKKSCPLGYAINDRCDDLKTCGPDECCLNGVVNAYGICEYEGESATHTYELYVE; Anti-C5 ultralong CDR-H3) [compound 558] | Human and Rat | Human and Rat |  |  |  |
| 594 (TCPLGYDLNYRCDHFNTCRVEECCKNGVVNAYGICEYAGGSAT; Anti-C5 ultralong CDR-H3 knob domain) [compound 594] |  |  | Human and Rat | Human and Rat |  |
| 595 (TCPSGCSWFSGCWDTYRCGPSVCCRDGRYGCAAIICRDT; Anti-C5 ultralong CDR-H3 knob domain) [compound 595] |  |  | Human and Rat | Human and Rat |  |
| 596 (TCPRGYHYNDRCEFFNTCRVEECCLNGVVNTYGICEYEGGSAT; Anti-C5 ultralong CDR-H3 knob domain) [compound 596] |  |  | Human and Rat | Human and Rat |  |
| 597 (TCPRGYHYNDRCDFFNTCRVEECCLNGVVNTYGICEYEGGSAT; Anti-C5 ultralong CDR-H3 knob domain) [compound 597] |  |  | Human and Rat | Human and Rat |  |
| 598 (SCPDGYGYGDGYCYDSGCSASDCYGVDALYSYGHCGCSIYTERPR; Anti-C5 ultralong CDR-H3 knob domain) [compound 598] |  |  | Human and Rat | Human and Rat |  |
| 599 (SCPLGYAINDRCDDLKTCGPDECCLNGVVNAYGICEYEGESAT; Anti-C5 ultralong CDR-H3 knob domain) [compound 599] |  |  | Human and Rat | Human and Rat |  |
| CSCC[C@@H]1NC(=O)[C@@H]2CCCN2C(=O)[C@@H](NC(=O)[C@@H]2CSSC[C@H](NC(=O)[C@@H](N)CO)C(=O)N3CCC[C@H]3C(=O)N[C@@H](CC(=O)O)C(=O)NCC(=O)N[C@@H](Cc3ccccc3)C(=O)N[C@@H](CO)C(=O)N[C@@H](Cc3ccc(O)cc3)C(=O)N[C@@H](CCCNC(=N)N)C(=O)N[C@@H](CO)C(=O)N[C@@H](Cc3c[nH]c4ccccc34)C(=O)N[C@@H](CC(=O)O)C(=O)N[C@@H](CC(=O)O)C(=O)N[C@@H](Cc3ccccc3)C(=O)N2)CSSC[C@@H](C(=O)N[C@@H](CC(C)C)C(=O)N[C@@H](C)C(=O)N2CCC[C@H]2C(=O)N[C@@H](CCCNC(=N)N)C(=O)N[C@@H](CC(N)=O)C(=O)O)NC(=O)[C@H](CCCNC(=N)N)NC(=O)CNC(=O)[C@H](C(C)C)NC1=O (H-SCPDGFSYRSWDDFCCPMVGRCLAPRN-OH; disulfide 2-15, 16-22; N-terminus assumed) |  |  |  |  | pKd (C5 [2]): 8.14; mean stoichiometric ratio (C5 [2]; n = 3 experiments, listed as K149chemSD-A): 0.82; koff (C5 [2]; read-out: mean Koff, multi-cycle kinetics, n = 3 experiments): 0.00484 s⁻¹; kon (C5 [2]; read-out: mean Kon, multi-cycle kinetics, n = 3 experiments): 713000 M⁻¹ s⁻¹; pKd (C5 [3]): 8.21; kd (C5 [3]; chemically derived knob domain peptides, n = 1): 0.00723 s⁻¹; kon (C5 [3]; read-out: ka): 1.17e+06 M⁻¹ s⁻¹; fold more potent than K149B (C5 [3]; site directed disulphide forms of K149): 41 fold |
| CC[C@H](C)[C@@H]1NC(=O)[C@H](C)NC(=O)[C@H](C(C)C)NC(=O)CNC(=O)[C@@H]2CSSC[C@@H](C(=O)NCC(=O)N[C@@H](Cc3c[nH]cn3)C(=O)N[C@@H](Cc3ccccc3)C(=O)N[C@@H](CC(C)C)C(=O)N[C@@H](CC(N)=O)C(=O)N[C@@H](CO)C(=O)NCC(=O)N3CCC[C@H]3C(=O)N[C@@H](CC(N)=O)C(=O)N[C@H](C(=O)N[C@@H](CO)C(=O)N3CCC[C@H]3C(=O)N[C@@H](Cc3ccc(O)cc3)C(=O)N[C@H](C(=O)N[C@@H](CO)C(=O)N[C@H](C(=O)O)[C@@H](C)O)C(C)C)[C@@H](C)CC)NC(=O)CNC(=O)[C@H](Cc3c[nH]c4ccccc34)NC(=O)[C@H](CCCNC(=N)N)NC(=O)CNC(=O)[C@H](CSSC[C@H](NC(=O)[C@@H](N)[C@@H](C)O)C(=O)N3CCC[C@H]3C(=O)N[C@@H](CCC(=O)O)C(=O)NCC(=O)N[C@@H](Cc3c[nH]c4ccccc34)C(=O)N[C@@H](CO)C(=O)N[C@@H](CCC(=O)O)C(=O)N2)NC(=O)[C@H](CCC(=O)O)NC(=O)[C@H](C)NC(=O)CNC(=O)[C@H](Cc2ccc(O)cc2)NC1=O [K92chemFE Y16A] (H-TCPEGWSECGVAIYGAECGRWGCGHFLNSGPNISPYVST-OH; disulfide 2-18, 9-23; N-terminus assumed) |  |  |  |  | mean stoichiometric ratio (C5 [2]; n = 3 experiments): 0.66; koff (C5 [2]; multi-cycle kinetics, n = 3 experiments, read-out: mean Koff): 0.786 s⁻¹; kon (C5 [2]; multi-cycle kinetics, n = 3 experiments, read-out: mean Kon): 1.56e+07 M⁻¹ s⁻¹ |
| K92 chemFE W21H: W21H mutant of K92chemFE (TCPEGWSECGVAIYGYECGRHGCGHFLNSGPNISPYVST) |  |  |  |  | binding to human C5 (C5 [2]; chemical knob domains and variants, result in words): much-lower loss of affinity |
